Results on five molecules are retold here after paper PMC9368758, “Cellular Redox Metabolism Is Modulated by the Distinct Localization of Cyclic Nucleotide Phosphodiesterase 5A Isoforms” (International Journal of Molecular Sciences, 2022).

Where “and” joins values, the source holds several entries; their conditions need not be identical. Equal entries are not always repeated.

Series [1] concerns the target MmPDE5A2 produced in the K. lactis ragx1 mutant (Mus musculus). Kind of series: native gel or EMSA; native PAGE, 5% non-denaturing gel, Tris/glycine pH 8.3, 4 C, 1.0 ug purified protein, Coomassie; pre-incubated at 30 C up to 3 h with or without DTT, cGMP, sildenafil or diamide.
The target in series [2] is MmPDE5A3 (Mus musculus cGMP-specific phosphodiesterase 5A, isoform A3), produced in K. lactis wild type strain CBS2359 (Mus musculus). Described as above.
Series [3] has the same target. Kind of series: SEC; purified protein (300 ug) on Superose 12 HR 10/30, 4 C, 0.20 mL/min, 20 mM HEPES pH 7.0, 1 mM EGTA, 5 mM beta-mercaptoethanol, 5 mM MgCl2, 100 mM NaCl, 2 mM PMSF, 0.05% Triton X-100; fractions tested for cGMP-hydrolysing activity and by native Western blot; column calibrated with MW markers.
Series [4] concerns the target MmPDE5A2 (Mus musculus cGMP-specific phosphodiesterase 5A, isoform A2), produced in K. lactis CBS2359 transformed with p3XFlagPDE5A2 (Mus musculus). Kind of series: native gel or EMSA; native PAGE, 5% non-denaturing gel, Tris/glycine pH 8.3, 4 C, 1.0 ug purified protein, Coomassie; pre-incubated at 30 C up to 3 h with or without DTT, cGMP, sildenafil or diamide. For orientation: Mobility shift assays separate free from complexed probe on a gel.

For series [5] the target is unchanged. Kind of series: SEC; purified protein (300 ug) on Superose 12 HR 10/30, 4 C, 0.20 mL/min, 20 mM HEPES pH 7.0, 1 mM EGTA, 5 mM beta-mercaptoethanol, 5 mM MgCl2, 100 mM NaCl, 2 mM PMSF, 0.05% Triton X-100; fractions tested for cGMP-hydrolysing activity and by native Western blot; column calibrated with MW markers. On the technique in general: SEC sorts molecules by how far they enter the pores of the column.

Series [6] concerns the target MmPDE5A3 produced in the K. lactis ragx1 mutant (Mus musculus). As to the kind of experiment: native gel or EMSA; native PAGE, 5% non-denaturing gel, Tris/glycine pH 8.3, 4 C, 1.0 ug purified protein, Coomassie; pre-incubated at 30 C up to 3 h with or without DTT, cGMP, sildenafil or diamide.
Series [7] deals with the molecule itself. As to the kind of experiment: native gel or EMSA; native PAGE of K. lactis cell extracts with in-gel activity staining for G6PDH; cultures on various glucose concentrations, methylene blue, G418, ethanol; extracts also incubated overnight with NAD+ or NADP+.

For “MmPDE5A2 produced in the K. lactis ragx1 mutant (enzyme)”, the stoichiometry N in series [1] is 2.
Regarding “MmPDE5A3 (Mus musculus cGMP-specific phosphodiesterase 5A, isoform A3), produced in K. lactis wild type strain CBS2359 (enzyme)”, the stoichiometry N in series [2] and in series [3] was 2 in each case.
As to “MmPDE5A2 (Mus musculus cGMP-specific phosphodiesterase 5A, isoform A2), produced in K. lactis CBS2359 transformed with p3XFlagPDE5A2 (enzyme)”, the stoichiometry N in series [4] and in series [5] was 2 in each case.
In the case of “MmPDE5A3 produced in the K. lactis ragx1 mutant (enzyme)”, in series [6], the stoichiometry N stood at 2.

B1: Glc-6-phosphate dehydrogenase (G6PDH) of Kluyveromyces lactis (enzyme, K. lactis (endogenous in CBS2359), UniProt P48828 1-497, looked up)
chain: MATQFDENTVITIFGASGDLSKKKTFPALFGLYREGYLNPTTKIIGYARSKLSNEDLREKVKPFLKKPNGAKDDAKVNEFLSMVSYHAGPYDSDEGYLELKKIIEEFEAEKKVDEPHRLFYLALPPSIFIDVCSKLKENLYTESGIQRVIVEKPFGHDLQSATELQEKLAPLFSEDELFRIDHYLGKEMVKNLLLMRFGNTFLNAAWNKENIQSVQVVFKEPFGTEGRGGYFDSIGIIRDVMQNHLLQVLTLLTMERPVSFDPESVRDEKVKVLKAFSPIDHDDILIGQYGRSVDGSKPSYLDDETVKEDSKCVTFAAIGFKIANERWDGVPIVMRAGKALNEGKVEIRIQFRRVASGMFTDIPNNELVIRIQPNEAIYLKCNAKTPGLANENQTTELDLTYSERYKNYWIPEAYESLIRDALLGDHSNFVRDDELDVSWKLFTPLLNYLEGPDGPQPKIYPYGCRSPDGLVEFLADHGYTFSKPGSYQWPVTTPKM
notes: glucose-6-phosphate 1-dehydrogenase, Kluyveromyces lactis, endogenous enzyme seen by in-gel activity staining; Seen as a slow (tetramer) and a faster (dimer) band; also called glucose 6-phosphate dehydrogenase; source: endogenous, K. lactis cell extracts
B1: in series [7], the “stoichiometry N” value was 4 and 2.

Broadly, the stoichiometry N is the number of molecules, sites or subunits per partner or assembly.
